Data as given in patent US20250163182A1 (Janssen / Centocor, published 2025).

Tests used:
human ENPP3 on cells [1] = biological target: T1, human ENPP3 on cells (human, UniProt O14638 1-875); test: cell-based or functional assay
T1 sequence (looked up): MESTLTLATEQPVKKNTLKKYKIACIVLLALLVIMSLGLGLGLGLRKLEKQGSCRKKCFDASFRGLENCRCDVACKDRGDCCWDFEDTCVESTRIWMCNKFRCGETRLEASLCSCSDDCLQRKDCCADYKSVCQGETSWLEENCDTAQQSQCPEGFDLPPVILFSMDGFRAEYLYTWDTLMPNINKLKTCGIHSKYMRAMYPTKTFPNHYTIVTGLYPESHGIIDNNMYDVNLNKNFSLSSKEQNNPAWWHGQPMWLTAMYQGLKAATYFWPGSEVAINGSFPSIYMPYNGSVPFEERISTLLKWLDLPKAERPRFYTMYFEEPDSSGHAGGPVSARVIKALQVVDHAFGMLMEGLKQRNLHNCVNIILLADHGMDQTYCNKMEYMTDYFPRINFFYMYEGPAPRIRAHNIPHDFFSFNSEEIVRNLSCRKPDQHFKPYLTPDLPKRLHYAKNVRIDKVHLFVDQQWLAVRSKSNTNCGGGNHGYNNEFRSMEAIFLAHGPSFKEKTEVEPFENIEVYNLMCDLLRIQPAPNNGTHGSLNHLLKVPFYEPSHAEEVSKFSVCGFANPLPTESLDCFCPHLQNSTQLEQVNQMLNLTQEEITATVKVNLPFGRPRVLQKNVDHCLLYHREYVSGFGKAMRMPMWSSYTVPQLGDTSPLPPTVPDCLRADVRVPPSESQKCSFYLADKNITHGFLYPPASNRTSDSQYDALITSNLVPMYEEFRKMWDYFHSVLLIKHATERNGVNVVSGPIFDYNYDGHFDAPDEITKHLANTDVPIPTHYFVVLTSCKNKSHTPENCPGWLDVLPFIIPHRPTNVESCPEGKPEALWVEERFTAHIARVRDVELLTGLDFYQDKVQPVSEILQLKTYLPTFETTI

human ENPP3 on cells [2] = biological target: T1, human ENPP3 on cells; test: cell-based or functional assay; remark: listed apart in the source
human ENPP3 on cells [3] = biological target: T1, human ENPP3 on cells; test: cell-based or functional assay; remark: listed apart in the source
human ENPP3 on cells [4] = biological target: T1, human ENPP3 on cells; test: flow cytometry on A704 cells
human ENPP3 on cells [5] = biological target: T1, human ENPP3 on cells; test: flow cytometry on VMRCRCW cells
human CD3 on T cells [6] = biological target: T2, human CD3 on T cells (human, UniProt P07766 23-207); test: flow cytometry on human T cells, donor 110040278
T2 construct: on T cells it stands in the TCR-CD3 complex; also called human T cells; T cells isolated from healthy human donors

human CD3 on T cells [7] = biological target: T2, human CD3 on T cells; test: flow cytometry on human T cells, donor 110042496
human CD3 on T cells [8] = biological target: T2, human CD3 on T cells; test: flow cytometry on human T cells, donor 110042593
human CD3 on T cells [9] = biological target: T2, human CD3 on T cells; test: flow cytometry on human T cells, donor 110044049
human CD3 on T cells [10] = biological target: T2, human CD3 on T cells; test: flow cytometry on human T cells, donor 110048457
human CD3 on T cells [11] = biological target: T2, human CD3 on T cells; test: flow cytometry on human T cells, donor 888668965

T2 sequence (P07766 23-207 limits assumed): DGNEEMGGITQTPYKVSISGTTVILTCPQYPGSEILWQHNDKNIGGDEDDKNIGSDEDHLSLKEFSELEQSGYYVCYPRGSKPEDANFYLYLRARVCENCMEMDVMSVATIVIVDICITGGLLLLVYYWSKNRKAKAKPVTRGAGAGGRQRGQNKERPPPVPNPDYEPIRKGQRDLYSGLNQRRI

B1: NPP3B815 (bispecific antibody, human IgG1, kappa, L234A L235A)
heavy 1: EIVLTQSPATLSASPGERVTLSCSASSSVSYMNWYQQKPGCAPRRWIYDSSKLASGVPARFSGSGSGRDYTLTISSLEPEDFAVYYCQQWSRNPPTFGGGTKVEIKGGGSGGSGGCPPCGGSGGQVQLVQSGAEVKKPGSSVKVSCKASGYTFTRSTMHWVKQAPGQGLEWIGYINPSSAYTNYNQKFQGRVTLTADKSTSTAYMELSSLRSEDTAVYYCASPQVHYDYAGFPYWGCGTLVTVSSEPKSSDKTHTCPPCPAPEAAGGPSVFLFPPKPKDTLMISRTPEVTCVVVSVSHEDPEVKFNWYVDGVEVHNAKTKPREEQYNSTYRVVSVLTVLHQDWLNGKEYKCKVSNKALPAPIEKTISKAKGQPREPQVYTLPPSREEMTKNQVSLWCLVKGFYPSDIAVEWESNGQPENNYKTTPPVLDSDGSFFLYSKLTVDKSRWQQGNVFSCSVMHEALHNHYTQKSLSLSPGK
heavy 2: EVQLVESGGGRVKPGGSLRLSCAASGFTFSDYSMNWVRQAPGKGLEWVSSISSISSYVKYADSVKGRFTMSRDNAKNSLFLQMNSLRDEDMAVYYCARGHYFDYWGQGTLVTVSSASTKGPSVFPLAPSSKSTSGGTAALGCLVKDYFPEPVTVSWNSGALTSGVHTFPAVLQSSGLYSLSSVVTVPSSSLGTQTYICNVNHKPSNTKVDKKVEPKSCDKTHTCPPCPAPEAAGGPSVFLFPPKPKDTLMISRTPEVTCVVVSVSHEDPEVKFNWYVDGVEVHNAKTKPREEQYNSTYRVVSVLTVLHQDWLNGKEYKCKVSNKALPAPIEKTISKAKGQPREPQVYTLPPSREEMTKNQVSLSCAVKGFYPSDIAVEWESNGQPENNYKTTPPVLDSDGSFFLVSKLTVDKSRWQQGNVFSCSVMHEALHNRFTQKSLSLSPGK
light: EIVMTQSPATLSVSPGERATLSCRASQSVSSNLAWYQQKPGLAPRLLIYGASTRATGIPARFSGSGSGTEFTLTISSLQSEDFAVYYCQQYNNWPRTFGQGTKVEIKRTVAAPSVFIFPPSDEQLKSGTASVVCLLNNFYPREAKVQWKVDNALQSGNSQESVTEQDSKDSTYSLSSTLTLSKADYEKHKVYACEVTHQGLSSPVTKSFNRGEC
notes: HC2 carries the NPP3B56 Fab and the hole T366S, L368A, Y407V; Fc with L234A, L235A, D265S; The CPPC linker cysteines form disulfides with engineered Cys at L42 and H105 (Chothia); also called NPP3B56×CD3B2030-N106A; ENPP3×CD3 (NPP3B815)
Human ENPP3 on cells [1]
  T-cell activation (Flow Cytometry) EC50; A704; E:T 3:1: 0.011 nM
  T-cell activation (Flow Cytometry) EC50; HepG2; E:T 3:1: 0.041 nM
  T-cell activation (Flow Cytometry) EC50; VMRCRCW; E:T 3:1: 0.018 nM
  Tumor cell killing (Incucyte) EC50; A704; E:T 3:1: 0.03 nM
  Tumor cell killing (Incucyte) EC50; HepG2; E:T 3:1: 0.53 nM
  Tumor cell killing (Incucyte) EC50; TUHR4TKB; E:T 3:1: 0.05 nM
  Tumor cell killing (Incucyte) EC50; TUHR10TKB; E:T 3:1: 0.02 nM
  Tumor cell killing (Incucyte) EC50; VMRCRCW; E:T 3:1: 0.13 nM
Human ENPP3 on cells [2]
  killing EC50 @ 72 hrs; A704; T-cell donor 110040278; E:T 1:1: 0.075 nM
  killing EC50 @ 72 hrs; A704; T-cell donor 110040278; E:T 3:1: 0.0484 nM
  killing EC50 @ 72 hrs; A704; T-cell donor 110042496; E:T 1:1: 0.132 nM
  killing EC50 @ 72 hrs; A704; T-cell donor 110042496; E:T 3:1: 0.0696 nM
  killing EC50 @ 72 hrs; A704; T-cell donor 110042593; E:T 1:1: 0.114 nM
  killing EC50 @ 72 hrs; A704; T-cell donor 110042593; E:T 3:1: 0.0336 nM
  killing EC50 @ 72 hrs; A704; T-cell donor 110044049; E:T 3:1: 0.0524 nM
  killing EC50 @ 72 hrs; A704; T-cell donor 888668965; E:T 3:1: 0.0454 nM
  killing EC50 @ 72 hrs; VMRCRCW; T-cell donor 110040278; E:T 1:1: 0.243 nM
  killing EC50 @ 72 hrs; VMRCRCW; T-cell donor 110040278; E:T 1:3: 0.456 nM
  killing EC50 @ 72 hrs; VMRCRCW; T-cell donor 110040278; E:T 3:1: 0.0923 nM
  killing EC50 @ 72 hrs; VMRCRCW; T-cell donor 110042496; E:T 1:1: 0.465 nM
  killing EC50 @ 72 hrs; VMRCRCW; T-cell donor 110042496; E:T 3:1: 0.128 nM
  killing EC50 @ 72 hrs; VMRCRCW; T-cell donor 110042593; E:T 1:1: 0.225 nM
  killing EC50 @ 72 hrs; VMRCRCW; T-cell donor 110042593; E:T 3:1: 0.0795 nM
  killing EC50 @ 72 hrs; VMRCRCW; T-cell donor 110044049; E:T 1:1: 0.151 nM
  killing EC50 @ 72 hrs; VMRCRCW; T-cell donor 110044049; E:T 1:3: 0.226 nM
  killing EC50 @ 72 hrs; VMRCRCW; T-cell donor 110044049; E:T 3:1: 0.115 nM
  killing EC50 @ 72 hrs; VMRCRCW; T-cell donor 110048457; E:T 1:1: 0.177 nM
  killing EC50 @ 72 hrs; VMRCRCW; T-cell donor 110048457; E:T 1:3: 0.276 nM
  killing EC50 @ 72 hrs; VMRCRCW; T-cell donor 110048457; E:T 3:1: 0.372 nM
  killing EC50 @ 72 hrs; VMRCRCW; T-cell donor 888668965; E:T 1:1: 0.273 nM
  killing EC50 @ 72 hrs; VMRCRCW; T-cell donor 888668965; E:T 1:3: 0.469 nM
  killing EC50 @ 72 hrs; VMRCRCW; T-cell donor 888668965; E:T 3:1: 0.156 nM
  killing EC50 @ 120 hrs; A704; T-cell donor 110040278; E:T 1:1: 0.041 nM
  killing EC50 @ 120 hrs; A704; T-cell donor 110040278; E:T 1:3: 0.149 nM
  killing EC50 @ 120 hrs; A704; T-cell donor 110042496; E:T 1:1: 0.073 nM
  killing EC50 @ 120 hrs; A704; T-cell donor 110042496; E:T 1:3: 0.191 nM
  killing EC50 @ 120 hrs; A704; T-cell donor 110042593; E:T 1:1: 0.048 nM
  killing EC50 @ 120 hrs; A704; T-cell donor 110042593; E:T 1:3: 0.106 nM
  killing EC50 @ 120 hrs; A704; T-cell donor 110044049; E:T 1:1: 0.125 nM
  killing EC50 @ 120 hrs; A704; T-cell donor 888668965; E:T 1:3: 0.163 nM
  killing EC50 @ 120 hrs; VMRCRCW; T-cell donor 110040278; E:T 1:1: 0.264 nM
  killing EC50 @ 120 hrs; VMRCRCW; T-cell donor 110040278; E:T 1:3: 0.332 nM
  killing EC50 @ 120 hrs; VMRCRCW; T-cell donor 110042496; E:T 1:1: 0.454 nM
  killing EC50 @ 120 hrs; VMRCRCW; T-cell donor 110042496; E:T 1:3: 0.5 nM
  killing EC50 @ 120 hrs; VMRCRCW; T-cell donor 110042593; E:T 1:1: 0.218 nM
  killing EC50 @ 120 hrs; VMRCRCW; T-cell donor 110042593; E:T 1:3: 0.485 nM
  killing EC50 @ 120 hrs; VMRCRCW; T-cell donor 110044049; E:T 1:1: 0.216 nM
  killing EC50 @ 120 hrs; VMRCRCW; T-cell donor 110044049; E:T 1:3: 0.337 nM
  killing EC50 @ 120 hrs; VMRCRCW; T-cell donor 110048457; E:T 1:1: 0.21 nM
  killing EC50 @ 120 hrs; VMRCRCW; T-cell donor 110048457; E:T 1:3: 0.267 nM
  killing EC50 @ 120 hrs; VMRCRCW; T-cell donor 888668965; E:T 1:1: 0.345 nM
  killing EC50 @ 120 hrs; VMRCRCW; T-cell donor 888668965; E:T 1:3: 0.379 nM
Human ENPP3 on cells [3]
  T-cell activation (CD25) EC50; A704; T-cell donor 110040278; E:T 3:1: 0.008 nM
  T-cell activation (CD25) EC50; A704; T-cell donor 110042496; E:T 3:1: 0.017 nM
  T-cell activation (CD25) EC50; A704; T-cell donor 110042593; E:T 3:1: 0.013 nM
  T-cell activation (CD25) EC50; A704; T-cell donor 110044049; E:T 3:1: 0.008 nM
  T-cell activation (CD25) EC50; A704; T-cell donor 110048457; E:T 3:1: 0.01 nM
  T-cell activation (CD25) EC50; A704; T-cell donor 888668965; E:T 3:1: 0.008 nM
  T-cell activation (CD25) EC50; VMRCRCW; T-cell donor 110040278; E:T 3:1: 0.007 nM
  T-cell activation (CD25) EC50; VMRCRCW; T-cell donor 110042496; E:T 3:1: 0.015 nM
  T-cell activation (CD25) EC50; VMRCRCW; T-cell donor 110042593; E:T 3:1: 0.017 nM
  T-cell activation (CD25) EC50; VMRCRCW; T-cell donor 110044049; E:T 3:1: 0.009 nM
  T-cell activation (CD25) EC50; VMRCRCW; T-cell donor 110048457; E:T 3:1: 0.009 nM
  T-cell activation (CD25) EC50; VMRCRCW; T-cell donor 888668965; E:T 3:1: 0.016 nM
Human ENPP3 on cells [4]
  EC50: 1.01 nM
Human ENPP3 on cells [5]
  EC50: 0.5 nM
Human CD3 on T cells [6]
  EC50: 253 nM
Human CD3 on T cells [7]
  EC50: 147 nM
Human CD3 on T cells [8]
  EC50: 146 nM
Human CD3 on T cells [9]
  EC50: 188 nM
Human CD3 on T cells [10]
  EC50: 132 nM
Human CD3 on T cells [11]
  EC50: 197 nM
